The target in assay [1] is T1, 6xHis-tagged cyPD-L1 (cynomolgus monkey, UniProt Q9NZQ7 19-238 (human entry)).
T1 construct: The assay text says only '6xHis-tagged cyPD-L1'; also called cynomolgus PD-L1; not shown: 6xHis tag
Briefly: ELISA, plate-coated 6xHis cyPD-L1, A450. How it is done:
(§1) Hybridoma supernatants were tested for binding to huPD-L1, cyPD-L1, and muPD-L1 by ELISA. Briefly, 30 μL 6xHis-tagged huPD-L1, cyPD-L1, or muPD-L1 (1 μg/mL in PBS) were immobilized in wells of a 96-well assay plate overnight at 4° C. After washing and blocking steps, 30 μL of antibody supernatant were added to the plate and incubated at room temperature for 1 hr. Bound human antibody was detected using horseradish peroxidase (HRP)-conjugated goat anti-human Fc (Invitrogen Cat. No. 109-035-097; diluted 1:5000) or goat anti-mouse Fc HRP (Invitrogen Cat. No. 115-035-071) as a control. Bound antibody was detected with 1-Step Ultra™ TMB-ELISA Substrate (ThermoFisher Scientific Cat. No. 34029). When the reaction was complete the reaction was stopped, and the plate was read at 450 nm.
(§2) Anti-PD-L1 antibodies, described in Example 1A and manufactured substantially as described in Example 1B, were tested for to huPD-L1 and cyPD-L1 by ELISA substantially as described in Example 1A, using 12 dilutions of antibody ranging from 1 ng/ml to 3 mg/mL.

In assay [2] the target is T2, 6xHis-tagged huPD-L1 (human, UniProt Q9NZQ7 19-238).
T2 construct: also called human PD-L1 (RD Systems 9049-B7); extracellular domain of human PD-L1 fused to a His tag; not shown: 6xHis tag
T2 sequence (Q9NZQ7 19-238): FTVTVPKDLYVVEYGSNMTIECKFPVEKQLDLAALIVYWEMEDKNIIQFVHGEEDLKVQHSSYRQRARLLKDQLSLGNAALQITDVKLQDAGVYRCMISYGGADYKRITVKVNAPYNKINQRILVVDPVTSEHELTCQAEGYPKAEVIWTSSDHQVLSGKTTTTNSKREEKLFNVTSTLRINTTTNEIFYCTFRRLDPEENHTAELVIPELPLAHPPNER
Kind of assay: ELISA, plate-coated 6xHis huPD-L1, A450. As for the experimental part:
as §1, §2

Assay [3] deals with T3, human PD-L1 expressed on cells (human, UniProt Q9NZQ7 19-290).
T3 construct: whole, on cells; One entry covers all human PD-L1-bearing cells; also called huPD-L1 on CHO cells (CHO-hPD-L1); PD-L1 on A431 cells
T3 sequence (Q9NZQ7 19-290): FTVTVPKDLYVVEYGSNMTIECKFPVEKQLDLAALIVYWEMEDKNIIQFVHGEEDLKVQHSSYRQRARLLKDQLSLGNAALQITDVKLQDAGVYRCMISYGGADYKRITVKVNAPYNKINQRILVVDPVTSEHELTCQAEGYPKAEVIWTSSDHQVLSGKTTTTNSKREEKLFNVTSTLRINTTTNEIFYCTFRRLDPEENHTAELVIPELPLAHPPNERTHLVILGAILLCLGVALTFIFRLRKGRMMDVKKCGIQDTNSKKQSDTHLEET
Kind of assay: flow cytometry, PD-L1-expressing CHO cells, MFI (FITC). As for the experimental part: Wild-type (wt) Chinese hamster ovary (CHO) cells (ATCC) and CHO cells engineered to express huPD-L1 (BPS Bioscience) were seeded at 200,000 cells in 50 μL FACS buffer (PBS containing 1% FBS and 5 mM EDTA) per well of a 96-well plate. Cell viability was assessed by adding 50 μL 2×Zombie Violet (BioLegend). Dead cell controls were also prepared and 2×Zombie violet was added. After incubating 20-30 minutes at room temperature, protected from light, 150 μL FACS buffer were added to each well. The plates were centrifuged, and the supernatant was aspirated. […] The plates were incubated 30 minutes on ice, protected from light. 150 μL FACS buffer were then added to each well and the plate was centrifuged. The supernatant was removed and the cells were washed three times in 200 μL FACS buffer. […] The cells were incubated 30 minutes on ice, protected from light. 150 μL FACS buffer were then added to each well and the plate was centrifuged. Supernatant was removed and the cells were washed twice with 200 μL FACS buffer. The cells were then resuspended in FACS buffer and analyzed by CytoFLEX using the appropriate channels. After gating for whole, single, live cells, the MFI in the APC channel (or FITC channel for human control samples) was normalized to the signal from hybridoma media alone (or isotype control for human control). MFI fold over media alone was determined for each clone supernatant tested.
(In flow cytometry, cells or beads pass a laser one at a time.)

Assay [4] has as its target T1, 6xHis-tagged cyPD-L1. Briefly: ELISA, plate-coated 6xHis cyPD-L1, OD 450 nm. How it is done: as §1
(In general: ELISA stands for enzyme-linked immunosorbent assay.)

For assay [5], the target named is T4, PD-L1-His (Acro Cat PDL-H5229) (human, UniProt Q9NZQ7 19-238).
T4 construct: also called human PD-L1 (SPR analyte); not shown: His tag
T4 sequence (Q9NZQ7 19-238 limits assumed): as the sequence (Q9NZQ7 19-238) above
Briefly: SPR (Biacore 4000) as in Example 3, conjugate captured, PD-L1-His analyte, 37° C. As for the experimental part:
(§3) The binding affinities of the generated antibodies to human PD-L1 were determined by surface plasmon resonance. […] PD-L1-His (Acro Cat PDL-H5229) was tested for binding in a 3-fold titration series up to 100 nM. Data were collected in HBS-P (pH 7.4) at 37° C. and 25° C.
(§4) The binding affinities of the generated anti-PD-L1 conjugates were determined by surface plasmon resonance, as described in Example 3.
A general note: In SPR one partner is held on a chip, and binding of the other changes the refractive index at the surface.

The target of assay [6] is T4, PD-L1-His (Acro Cat PDL-H5229). Kind of assay: SPR (Biacore 4000) as in Example 3, conjugate captured, PD-L1-His analyte, 25° C. How it is done:
as §3, §4

Assay [7] has as its target T2, 6xHis-tagged huPD-L1. Briefly: ELISA, plate-coated 6xHis huPD-L1, OD 450 nm. As for the experimental part: as §1
Assay [8] addresses T3, human PD-L1 expressed on cells. Briefly: cell-based or functional assay.
For assay [9] the target is unchanged. Briefly: cell-based or functional assay. This is another data set of the same source.

Positions count from the first letter of the chain named. Numbers in names are those of the source.

T1 sequence (Q9NZQ7 other isoform, or with tags, fused parts or gaps): as the sequence (Q9NZQ7 19-238) above, with A33T, A34S, S62N, R68Q, Q82R, F173L, T185A, T192I, H215L counted along it

B1: 2M1 (antibody, V domains shown)
VH: EVQLVESGGGLVKPGGSLRLSCAASGFTFSSYTMNWVRQAPGKGLEWVSSITSSTSYIYYADSVKGRFTISRDNAKNSLYLQMNSLRAEDTSVYYCVRDWSIAARGAWFDPWGQGTLVTVSS
VL: DIQMTQSPSSVSASVGDRVTITCRASQGIGSWLAWYQQKPGKAPKFLIYAASSLQGGVPSRFSGSGSGTDFTLTISSLQPEDFATYYCQQANSFPLTFGGGTKVEIK
Turning to B1, the “Absolute IC50” value in assay [1] worked out at 0.559 mg/L; in assay [2], 0.428 mg/L.

B2: 2M3 (antibody, V domains shown)
VH: EVQLVESGGGFVQTGGSLRLSCAASGFNFRSYDMHWVRQVIGKGLEWVSGIGPGGDTYYPGSVKGRFTISRENAKNSLYLQMNSLRAGDTAVYYCAREQFEGHYFDYWGQGTLVTVSS
VL: B1 VL with T20N, G30S, G41W, F46L, A50T, G56S, L96I, G100Q, K103R, V104L
On to B2, for which the “Absolute IC50” value turned out to be 0.672 mg/L in [1] and 0.788 mg/L in [2].

B3: 1P9 with effector knockout mutations L234F/L235E/P331S (antibody, V domains shown)
VH: EVQLVESGGGLVQPGGSLRLSCAASGFTFSTYWMSWVRQAPGKGLEWVANIKQDGGERYYVDSVKGRFTISRDNAKSSLYLQMNSLRAEDTALYYCARLRLYSDYEDYWGQGTLVTVSS
VL: B1 VL with G30S, F46L, A50S, A51V, G56S, F83S, F94L, L96P
notes: Same variable regions as 1P9; also called 1P9-EKO; 1P9 (L234F/L235E/P331S)
Broadly, the EC50 is the concentration at which the effect is half-maximal. Read a high EC50 as lower potency in that assay. The molecule B3 yielded an EC50 in [3] of 0.0186 mg/L.

B4: 1P9-EKO-IR700 conjugate (antibody, V domains shown)
VH: B3 VH
VL: B1 VL with G30S, F46L, A50S, A51V, G56S, F83S, F94L, L96P
modifications: IRDye 700DX (IR700) attached via NHS ester; sites not stated; IRDye 700DX (IR700) attached via NHS ester; sites not stated; DAR 2.5 per antibody
notes: also called 1P9-EKO (conjugate); anti-PD-L1-IR700 conjugate with effector knock-out Fc region
In turn, B4 yielded an EC50 in assay [3] of 0.0174 mg/L.

B5: 3B2 (antibody, V domains shown)
VH: EVQLQESGPSLVKPSQTLSLTCSVTGDSITSGYWNWIRKFPGNKLEYMGYISYTGSTYYNPSLKSRISITRDTSKNQYYLQLDSVTTEDTATYYCARKGGWLLPFAYWGQGTLVTVSA
VL: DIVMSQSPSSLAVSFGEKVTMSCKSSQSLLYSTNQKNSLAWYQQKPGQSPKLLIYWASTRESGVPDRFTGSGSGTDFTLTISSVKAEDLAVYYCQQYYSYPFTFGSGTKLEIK
On to B5, for which the “Absolute IC50” value in assay [1] came to 0.341 mg/L; in assay [2] it was 0.225 mg/L.

B6: 3B4 (antibody, V domains shown)
VH: B5 VH with Y47S, I67L, Y78F, D83N, R97S, K98G, G99L, G100L, L103A, P104W
VL: DIVMSQSPSSLAVSVGEKVTMSCKSSQSLLYSSNQKNSLAWYQQKPGQSPKLLIYWASTRESGVPDRFTGSGSGTDFTLTISSVRAEDLAVYYCQQYYGYPFTFGGGTKLEIK
Regarding B6, the “Absolute IC50” value in assay [1] came out at 0.106 mg/L; in assay [2] it was 0.152 mg/L.

B7: 2M2 (antibody, V domains shown)
VH: QVQLVQSGAEVKKPGASVKVSCKASGYTFTNYGISWVRQAPGQGLEWMGWISAYNGHTNYAQKVQGRVTMTTDTSTSTAFMELRSLRSDDSAVYYCARGTSGDYWGQGTLVTVSS
VL: not shown
Consider B7, for which the figures for the “Absolute IC50” value in assay [1] and in assay [2] were 0.167 mg/L and 0.0838 mg/L, respectively.

B8: 3B1 (antibody, V domains shown)
VH: QIQLVQSGPELKKPGETVKISCKASGYDFTNYGMNWVKQAPGKGLKWMGYINTYTGEPAYADDFKGRFAFSLETSARTAYLRINNLKNEDTATYFCATRAYYGHYLAYWGQGTLVTVSA
VL: DVLMTQTPLSLPVSLGDQASISCRSSQRIVHSNGNTYLEWYLQKPGQSPKLLIYKVSNRFSGVPDRFSGSGSGTDFTLKISRVEAEDLGVYYCFQGSHVPYTFGGGTKLEIK
Consider B8, for which the results for the “Absolute IC50” value in [1] and in assay [2] were 0.0569 mg/L and 0.0498 mg/L, respectively.

B9: 3B5 (antibody, V domains shown)
VH: B8 VH
VL: QIVLTQSPAIMSASPGEKVTITCSASSSVSYMHWFQQKPGTSPKLWIYSTSNLASGVPARFSGSGSGTSYSLTISRMEAEDAATYYCQQRSSYPFTFGSGTKLEIK
For the molecule B9, the “Absolute IC50” value in assay [1] was determined as 0.325 mg/L. In assay [2], the binding result was “binds”.

B10: 1P4-IR700 (antibody, V domains shown)
VH: QVQLVESGGGVVQPGRSLRLSCAASGFTFSNYGMHWVRQAPGKGLEWVSLILYDGSNKYYADSVKGRFTISRDNSKNTLYLQMNSLRAEDTAVYYCARDRVWLDVWGKGTTVTVSS
VL: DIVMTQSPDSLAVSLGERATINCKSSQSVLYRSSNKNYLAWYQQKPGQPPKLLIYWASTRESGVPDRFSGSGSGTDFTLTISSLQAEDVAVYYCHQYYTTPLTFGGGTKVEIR
modifications: IRDye 700DX (IR700) attached via NHS ester; sites not stated; IRDye 700DX (IR700) attached via NHS ester; sites not stated; DAR 2.9 per antibody
notes: also called 1P4-IR700 conjugate; anti-PD-L1-IR700 conjugate
For orientation: Kd means the concentration at which binding is half-saturated. Lower therefore signals higher affinity. The term koff denotes a measure of how fast the partners let go of each other. In general, kon refers to the second-order rate constant of association. A higher kon goes with fast association. With B10, the results for the EC50 in assay [3], in assay [4] and in [7] were 0.133 mg/L, 0.193 mg/L and 0.189 mg/L, respectively. The equilibrium dissociation constant (Kd) in assay [5] was found to be 0.023 µM; in assay [6], 0.016 µM. The figures for the koff in assay [5] and in [6] were 0.011 s⁻¹ and 0.0056 s⁻¹, respectively. Further, the kon in assay [5] stood at 470000 M⁻¹ s⁻¹; in [6], 350000 M⁻¹ s⁻¹. Moreover, the “EC50 of luminescence (RLU), PD-1:PD-L1 Blockade Bioassay (PD-L1 aAPC/CHO-K1 cells with PD-1 Effector Jurkat NFAT-luciferase cells)” value in assay [8] was 0.855 mg/L. In addition, in [9], the “EC50 of photoimmunotherapy-induced killing of A431 cells (Cell Tox Green, 128 J/cm^2)” value came out at 0.103 mg/L.

B11: 1P4-EKO-IR700 conjugate (antibody, V domains shown)
VH: B10 VH
VL: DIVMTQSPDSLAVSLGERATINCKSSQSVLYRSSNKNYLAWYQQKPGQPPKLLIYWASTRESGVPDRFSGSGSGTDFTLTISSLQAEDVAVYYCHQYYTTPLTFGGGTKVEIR
modifications: IRDye 700DX (IR700) attached via NHS ester; sites not stated; IRDye 700DX (IR700) attached via NHS ester; sites not stated; DAR 2.7 per antibody
notes: also called 1P4-EKO (conjugate); anti-PD-L1-IR700 conjugate with effector knock-out Fc region
Molecule B11 gave a 50% effective concentration (EC50) in [3] of 0.145 mg/L.

B12: 1P4 with effector knockout (EKO) mutations L234F/L235E/P331S (antibody, V domains shown)
VH: B10 VH
VL: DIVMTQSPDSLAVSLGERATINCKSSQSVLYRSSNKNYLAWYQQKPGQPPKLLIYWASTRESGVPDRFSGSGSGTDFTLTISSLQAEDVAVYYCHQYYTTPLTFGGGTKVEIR
notes: Same variable regions as 1P4; also called 1P4-EKO; 1P4 (L234F/L235E/P331S)
In the case of B12, in assay [3], the 50% effective concentration (EC50) is 0.0455 mg/L.

B13: 3B6 (antibody, V domains shown)
VH: EVKLVESGGGLVQPGGSLRLSCGTSGFTFSDFYVEWVRQPPGKRLEWIAASRNKVNDYTTEYSESVKGRFIVSRDTSQNILYLQMNALRAEDSAIYYCARNVPWDGWYFDVWGAGTAVTVSS
VL: DIVMTQSQKFMSTSVGDRVSITCKASQNVRTAVAWFQQKPGQSPKALIYLASTRHTGVPDRFTGSGSGTDFTLTISNVQSEDLADYFCLQHWNYPRTFGGGTKLEIK
With B13, the “Absolute IC50” value came to 0.246 mg/L in assay [1] and 0.33 mg/L in assay [2].

B14: 2M5 (antibody, V domains shown)
VH: EVQLVESGGGLVKPGGSLRVSCAASGFTLSSYSMNWVRQAPGKGLEWVSSISSSSSYIYYADSVKGRFTISRDNAKNLLYLQMNSLRAEDTAVYYCAREGGAARPSWFDPWGQGTLVTVSS
VL: QAVVTQESALTTSPGETVTLTCRSSTGAVTTSNYANWVQEKPDHLFTGLIGGTNNRAPGVPARFSGSLIGDKAALTITGAQTEDEAIYFCALWYRNHWVFGGGTKLTVL
Consider B14, for which the “Absolute IC50” value worked out at 0.234 mg/L in assay [1] and 0.788 mg/L in assay [2].

For the origin of these results see patent US20250145716A1 (RAKUTEN MEDICAL, published 2025).
